Results reported in patent US20240067747A1 (SHANGHAI HUAOTA BIOPHARMACEUTICAL, published 2024).
Numbering of substitutions follows the chain as printed. Each block holds one binder with its values, some of them ahead of it.

Experiments:
[1] = target: T1, Trypsin inhibitor type 1-S from Glycine max (Sigma, T-2327) (Glycine max, UniProt P01070 25-205); assay: SPR, Biacore 8K, trypsin inhibitor immobilized on CM5, antibody at 1000 nM; buffer alone 13.9 RU
T1 construct: Non-target molecule, amine-coupled to a CM5 chip
T1 sequence (looked up): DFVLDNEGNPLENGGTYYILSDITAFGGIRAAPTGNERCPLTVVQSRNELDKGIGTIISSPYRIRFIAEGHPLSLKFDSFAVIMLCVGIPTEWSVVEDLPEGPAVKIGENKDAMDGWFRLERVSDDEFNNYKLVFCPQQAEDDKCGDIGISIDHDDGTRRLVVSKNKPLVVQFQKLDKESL
Protocol: The non-specific adsorption effect of antigen-binding proteins and non-target molecules were determined by using the SPR method.
The series sensor chip CM5 (GE, #BR-1005-30) was equilibrated at room temperature for 20-30 min and then loaded into the Biacore 8K (GE) instrument. Lysozyme solution (Sigma, #L3790) from egg and trypsin inhibitor type 1-S (Sigma, #T-2327) from Glycine max were immobilized onto the CM5 chip using an amino coupling kit (GE, #BR-1000-50). The injection buffer was HBS-EP (1×) (GE, #BR-1006-69) and four equilibration cycles were set up. The polyclonal rabbit anti-lysozyme (ABcam, Ab391), anti-trypsin inhibitor antibodies (LifeSpan Biosciences, #LS-C76609), chimeric antibodies and humanized antibodies were diluted with equilibration buffer to 1000 nM, and the flow rate was set at 5 μL/min and injection channels 1, 2 and 3, Flow Cell 1 and 2 were selected. The association time was 10 min and the dissociation time was 10 min.
The PI of carboxymethyl dextran was 3.5, the PI of the trypsin inhibitor was 4.5, and the PI of lysozyme was 11.3. In the HBS-EP buffer solution with a pH of 7.4, carboxymethyl dextran and the trypsin inhibitor had strong negative charges, and lysozyme had strong positive charges.

[2] = target: T2, human CD73 on the cell surface of CHOK1-huCD73-3F4 cells (Huabo Biopharm) (human, UniProt P21589 27-549); assay: flow cytometry on CHOK1-huCD73-3F4 cells, PE-goat anti-human-Fc
T2 construct: whole, on cells; also called cells expressing human CD73; CD73 on cell membrane
T2 sequence (looked up): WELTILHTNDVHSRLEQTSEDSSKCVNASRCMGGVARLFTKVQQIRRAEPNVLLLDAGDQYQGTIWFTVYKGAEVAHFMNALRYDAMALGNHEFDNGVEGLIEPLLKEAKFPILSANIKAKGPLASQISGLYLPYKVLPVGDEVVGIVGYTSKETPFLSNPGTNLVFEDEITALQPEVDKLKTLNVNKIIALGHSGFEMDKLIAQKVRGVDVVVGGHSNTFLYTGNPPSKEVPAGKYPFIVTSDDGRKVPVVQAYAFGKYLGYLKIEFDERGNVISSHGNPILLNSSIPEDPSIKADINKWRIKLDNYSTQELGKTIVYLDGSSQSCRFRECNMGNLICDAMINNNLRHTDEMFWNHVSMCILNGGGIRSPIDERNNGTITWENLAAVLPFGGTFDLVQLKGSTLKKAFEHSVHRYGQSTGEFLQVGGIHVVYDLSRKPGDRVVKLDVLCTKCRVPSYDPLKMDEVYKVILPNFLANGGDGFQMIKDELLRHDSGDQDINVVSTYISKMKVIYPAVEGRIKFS
Protocol: All antigen-binding proteins were diluted to 30 μg/ml with 1% BSA in PBS solution (1% BSA/PBS) and then 3-fold diluted for 11 gradients. The diluted antigen-binding proteins were added to a 96-well U-shaped plate at 20 μL per well; and a negative control (with 1% BSA/PBS added only) was set up at the same time. The suspension of cells (CHOK1-huCD73-3F4, Huabo Biopharm) expressing human CD73 during the logarithmic growth phase were centrifuged (1000 rpm×5 min) to discard the culture medium; and the cells were resuspended with 1% BSA/PBS until the density of viable cells was 1×10⁶/mL, and were added, at 20 μL (2×10⁴ cells) per well, to the 96-well U-shaped plate with the […] antigen-binding protein to react for 30 min at room temperature. After reaction, the 96-well U-shaped plate was resuspended with 1% BSA/PBS, centrifuged (300 g×3 min) to discard the supernatant, and washed once in such a way. PE-goat anti-human-Fc (Jackson ImmunoResearch, #109-115098) diluted at 1:200 was added to react for 15 min in the dark at room temperature. After reaction, the 96-well U-shaped plate was resuspended with 1% BSA/PBS, centrifuged (300 g×3 min) to discard the supernatant, washed three times in such a way, and finally resuspended with 100 μL of 1% BSA/PBS for each wall; and the fluorescence intensity of a PE channel was detected with a flow cytometer (BD, #Cantoll).

[3] = target: T3, Cynomolgus CD73 protein (Novoprotein, item No. CI21) (cynomolgus, UniProt A0A2K5V5U7 27-547); assay: SPR, Biacore T200, antibody captured on protein A chip, cynomolgus CD73 as analyte, 1:1 model
T3 construct: Bought protein
T3 sequence: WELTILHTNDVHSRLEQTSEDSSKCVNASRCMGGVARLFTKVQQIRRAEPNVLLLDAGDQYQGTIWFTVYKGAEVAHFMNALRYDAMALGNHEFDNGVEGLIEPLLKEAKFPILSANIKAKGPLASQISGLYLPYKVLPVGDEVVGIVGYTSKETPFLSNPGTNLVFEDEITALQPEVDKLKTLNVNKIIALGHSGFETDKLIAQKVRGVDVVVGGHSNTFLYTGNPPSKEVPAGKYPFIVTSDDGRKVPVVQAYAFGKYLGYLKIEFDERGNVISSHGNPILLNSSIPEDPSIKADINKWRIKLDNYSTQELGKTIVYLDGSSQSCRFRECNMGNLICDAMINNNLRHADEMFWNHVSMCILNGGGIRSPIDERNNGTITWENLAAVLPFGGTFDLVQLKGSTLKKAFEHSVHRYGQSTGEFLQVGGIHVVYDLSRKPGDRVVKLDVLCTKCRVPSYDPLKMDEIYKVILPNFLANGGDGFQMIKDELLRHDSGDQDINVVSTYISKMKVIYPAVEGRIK
Protocol: In the tests, the assay buffer HBS-EP+ (pH 7.4) and the protein A chip (manufacturer: GE, item No.: 29-1275-56) were used.
The temperatures of a sample chamber and a flow path were set at 25° C., and the protein A chip respectively captured antigen-binding proteins as ligands and immobilized at about 100 RU. […] After association for 120 s at a flow rate of 30 μL/min, dissociation was carried out for 600 s. Regeneration was then carried out for 60 s with 10 mM Glycine (pH 1.5) at a flow rate of 50 μL/min to implement multi-cycle kinetic detection. A 1:1 binding model was selected for fitting analysis in a Fit local mode to acquire the association rate constant (ka), dissociation rate constant (kd) and dissociation equilibrium rate constant (KD).

[4] = target: T4, CD73 on the cell surface of Calu6 cells (UniProt P21589 27-549, limits assumed); assay: cell-based or functional assay
T4 sequence (looked up): T2 sequence (looked up)

non-specific binding amount (RU) [1]: 12.8 RU
EC50 [2]: 0.021 µg/mL
Kd [3]: 0.709 nM
koff [3]: 0.000606 s⁻¹
kon [3]: 855000 M⁻¹ s⁻¹
Endocytosis rate (%) [4]: 26.9%
B1: 900567 (human-mouse chimeric anti-CD73 antigen-binding protein expressed from 124A9 variable regions) (antibody, V domains shown)
VH: QVQLQQPGAELVKPGASVKLSCKASGYTFTSYWIHWVKQRPGQGLDWIGMIHPNSGSTYYNEKFKSKATLTVDKSSSTAYMQLSSLTSEDSAVYYCARYYGSDYEWYFDVWGTGTTVTVSS
VL: DIVMTQSQKFMSTSVGDRVSITCKASQNVRTAVVWYQQNPGQSPKALIYLASNRHTGVPDRFTGSGSGTDFTLTISNVHSEDLADYFCLQHWNYPYTFGGGTKLEIK

non-specific binding amount (RU) [1]: 12.6 RU
Kd [3]: 0.368 nM
koff [3]: 0.000156 s⁻¹
kon [3]: 425000 M⁻¹ s⁻¹
Endocytosis rate (%) [4]: 37.5%
B2: 900725 (humanized anti-CD73 antigen-binding protein) (antibody, V domains shown)
VH: QVQLVQSGAEVKKPGASVKLSCKASGYTFTSYWIHWVRQAPGQGLEWIGMIHPNSGSTYYNEKFKGRATLTVDKSTSTAYMELSSLRSEDTAVYYCARYYGSDYEWYFDVWGQGTTVTVSS
VL: DIQMTQSPSSMSASVGDRVTITCKASQNVRTAVVWYQQKPGKAPKALIYLASNRHTGVPDRFSGSGSGTDFTLTISSLQPEDFATYFCLQHWNYPYTFGQGTKLEIK

non-specific binding amount (RU) [1]: 15.4 RU
Kd [3]: 2 nM
koff [3]: 0.0032 s⁻¹
kon [3]: 1.6e+06 M⁻¹ s⁻¹
B3: 900726 (humanized anti-CD73 antigen-binding protein) (antibody, V domains shown)
VH: B2 VH
VL: B2 VL with M11L, F87Y

non-specific binding amount (RU) [1]: 11.6 RU
Kd [3]: 0.798 nM
koff [3]: 0.00074 s⁻¹
kon [3]: 927000 M⁻¹ s⁻¹
B4: 900727 (humanized anti-CD73 antigen-binding protein) (antibody, V domains shown)
VH: B2 VH with L20V, N61A, E62Q, K65Q, A68V, L70I
VL: B2 VL

non-specific binding amount (RU) [1]: 13.5 RU
Kd [3]: 0.561 nM
koff [3]: 0.000381 s⁻¹
kon [3]: 678000 M⁻¹ s⁻¹
Endocytosis rate (%) [4]: 33.9%
B5: 900728 (humanized anti-CD73 antigen-binding protein) (antibody, V domains shown)
VH: B2 VH with L20V, K65Q, A68V, L70M
VL: B2 VL with M11L, F87Y
